Measurements: publication PMC4452343, “Monitoring β-arrestin recruitment via β-lactamase enzyme fragment complementation: purification of peptide E as a low-affinity ligand for mammalian bombesin receptors” (PLoS ONE, 2015)

What was measured:
[1] = target: T1, human bombesin receptor subtype 3 (human, UniProt P32247 1-399); assay: radioligand binding; competition; 5 μg membrane fraction of CHO-hBRS3 cells with 0.1 nM radioligand and various concentrations of competitor, 2 h at room temperature, 50mM Tris-HCl (pH7.5), 5mM MgCl2; bound ligand separated on a GF/C filter; conditions: one partner purified
T1 construct: bombesin receptor subtype 3 (BRS3), human; expressed in CHO cells, no reporter fragment named; In the radioligand assay the receptor stood in membrane fractions of the cells; in the calcium and NFAT-luciferase assays on whole cells; also called hBRS3; CHO-hBRS3; source: CHO cells stably expressing hBRS3
T1 sequence (looked up): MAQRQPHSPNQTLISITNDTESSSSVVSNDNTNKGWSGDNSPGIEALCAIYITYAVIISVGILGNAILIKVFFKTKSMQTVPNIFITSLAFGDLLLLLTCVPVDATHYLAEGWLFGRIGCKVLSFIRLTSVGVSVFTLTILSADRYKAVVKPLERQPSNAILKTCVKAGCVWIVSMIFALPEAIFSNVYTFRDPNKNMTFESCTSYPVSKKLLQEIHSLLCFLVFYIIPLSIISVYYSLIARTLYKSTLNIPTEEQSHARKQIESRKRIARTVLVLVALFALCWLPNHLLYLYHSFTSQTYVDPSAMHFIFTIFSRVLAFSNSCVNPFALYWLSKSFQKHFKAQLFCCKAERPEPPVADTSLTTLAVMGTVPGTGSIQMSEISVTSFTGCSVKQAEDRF

[2] = target: T1, human bombesin receptor subtype 3; assay: cell-based or functional assay
neuromedin B receptor = neuromedin B receptor (human, UniProt P28336 1-390); assay: cell-based or functional assay
[3] = target: gastrin-releasing peptide receptor (human, UniProt P30550 1-384); assay: cell-based or functional assay
Chain of gastrin-releasing peptide receptor (P30550 whole entry): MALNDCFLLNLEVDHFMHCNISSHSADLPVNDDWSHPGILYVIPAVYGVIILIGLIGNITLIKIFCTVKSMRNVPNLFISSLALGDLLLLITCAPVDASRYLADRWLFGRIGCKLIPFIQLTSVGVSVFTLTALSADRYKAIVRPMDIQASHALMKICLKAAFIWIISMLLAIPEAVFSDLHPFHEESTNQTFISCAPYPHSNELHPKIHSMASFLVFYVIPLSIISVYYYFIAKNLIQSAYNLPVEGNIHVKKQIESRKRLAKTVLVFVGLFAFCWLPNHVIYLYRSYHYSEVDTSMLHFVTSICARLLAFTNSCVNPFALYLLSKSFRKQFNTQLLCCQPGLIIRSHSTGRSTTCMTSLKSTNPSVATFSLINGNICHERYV

Chain of neuromedin B receptor (P28336 whole entry): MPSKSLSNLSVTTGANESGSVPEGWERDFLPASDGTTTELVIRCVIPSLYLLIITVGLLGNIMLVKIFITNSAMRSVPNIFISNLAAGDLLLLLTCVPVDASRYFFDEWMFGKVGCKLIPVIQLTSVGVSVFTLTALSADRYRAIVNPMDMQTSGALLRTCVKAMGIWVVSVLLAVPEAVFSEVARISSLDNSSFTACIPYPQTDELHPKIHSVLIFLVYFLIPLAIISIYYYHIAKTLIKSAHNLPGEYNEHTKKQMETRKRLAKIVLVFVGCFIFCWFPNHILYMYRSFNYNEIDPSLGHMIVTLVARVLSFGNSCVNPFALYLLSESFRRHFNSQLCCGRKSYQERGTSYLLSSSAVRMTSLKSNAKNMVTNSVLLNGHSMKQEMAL

B1: peptide E (peptide)
chain: YGGFMRRVGRPEWWMDYQKRYGGFL
notes: peptide E, a partially processed product of the opioid peptide precursor proenkephalin A; 25 residues; also called P2; synthetic peptide E; source: synthetic peptide (chemically synthesized)
For B1, the IC50 [1] was 361 nM, the “EC50 of NFAT-luciferase reporter activation in CHO cells expressing hBRS3” value [2] was 500 nM and the “EC50 of NFAT-luciferase reporter activation in CHO cells expressing hNMBR” value (neuromedin B receptor) was 1100 nM. For the same binder, the “EC50 of NFAT-luciferase reporter activation in CHO cells expressing hGRPR” value [3] was 3500 nM.
